In this data set the test system is Escherichia coli TOP10. Briefly: shrunken log2 fold change of peptide-encoding DNA abundance (4.5 h post-induction vs induction); higher = less antimicrobial activity (less host growth inhibition). The following applies: time post-induction: 4.5 h; library: site-saturation at positions 5, 18, 19, 20.
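Also: peptides expressed intracellularly from a pBAD plasmid library in pooled LB shake-flask culture, induced with 0.3% L-arabinose, DNA abundance read by NGS, three biological replicates, DESeq2 with apeglm shrinkage.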

For the sequence RRIRDRPPRLPRPRPRPWKMPRP, the “shrunken log2 fold change” value stood at 0.0664.
Then RRIRPRPPRLPRPRPRPACDPRP, with 0.00904; and RRIRCRPPRLPRPRPRPFMIPRP, with -0.259; and RRIRMRPPRLPRPRPRPMDGPRP, with 0.418.
Then RRIRPRPPRLPRPRPRPDNGPRP, with -0.332; and RRIRFRPPRLPRPRPRPEVCPRP, with 0.00109; and RRIRCRPPRLPRPRPRPPRMPRP, with 0.671.
Next, RRIRMRPPRLPRPRPRPQLKPRP: 1.42; RRIRQRPPRLPRPRPRPAGLPRP: -0.158; RRIRERPPRLPRPRPRPGYYPRP: -0.0487.
With RRIRYRPPRLPRPRPRPTKQPRP, the “shrunken log2 fold change” value came out at 0.0156.
Then RRIRNRPPRLPRPRPRPPGDPRP, with 0.127; and RRIRVRPPRLPRPRPRPVSGPRP, with 0.0836.
Then RRIRYRPPRLPRPRPRPFRHPRP, with -0.16.
As to RRIRRRPPRLPRPRPRPWHTPRP, the “shrunken log2 fold change” value was -0.456.
Then RRIRYRPPRLPRPRPRPMPMPRP, with -0.319.
In the case of RRIRIRPPRLPRPRPRPVCYPRP, the “shrunken log2 fold change” value is -0.633.
For RRIRIRPPRLPRPRPRPWLRPRP, the “shrunken log2 fold change” value is -0.358.
RRIRQRPPRLPRPRPRPMWIPRP: the “shrunken log2 fold change” value is -0.146.
Next, RRIRQRPPRLPRPRPRPDQGPRP: -0.0223; RRIRGRPPRLPRPRPRPPNSPRP: 0.301; RRIRCRPPRLPRPRPRPGNFPRP: -0.0984.
For RRIRERPPRLPRPRPRPMEMPRP, the “shrunken log2 fold change” value was 0.0606.
In the case of RRIRNRPPRLPRPRPRPMQMPRP, the “shrunken log2 fold change” value was found to be 0.0963.
RRIRFRPPRLPRPRPRPGLNPRP: the “shrunken log2 fold change” value worked out at 0.207.
Next, RRIRTRPPRLPRPRPRPRYVPRP: -0.426; RRIRWRPPRLPRPRPRPCRNPRP: -0.0199.
Then RRIRKRPPRLPRPRPRPSPQPRP, with 0.219; and RRIRWRPPRLPRPRPRPVMIPRP, with 0.0436.
Then RRIRNRPPRLPRPRPRPDHHPRP, with 0.109; and RRIRARPPRLPRPRPRPYQMPRP, with -0.396.
For RRIRTRPPRLPRPRPRPNWGPRP, the “shrunken log2 fold change” value was -0.0445.
Then RRIRLRPPRLPRPRPRPSVVPRP, with -0.196.
On to RRIRLRPPRLPRPRPRPFLPPRP, for which the “shrunken log2 fold change” value was -0.171.
Then RRIRFRPPRLPRPRPRPLICPRP, with -0.286.
Then RRIRQRPPRLPRPRPRPSVLPRP, with -0.0352.
Next, RRIRPRPPRLPRPRPRPPRAPRP: 0.591; RRIRMRPPRLPRPRPRPQNFPRP: 0.0982; RRIRHRPPRLPRPRPRPIQIPRP: -0.139.
Regarding RRIRFRPPRLPRPRPRPIKYPRP, the “shrunken log2 fold change” value was -0.335.
For RRIRMRPPRLPRPRPRPHTHPRP, the “shrunken log2 fold change” value was -0.00443.
Next, RRIRTRPPRLPRPRPRPNGRPRP: -0.0231.
Next, RRIRARPPRLPRPRPRPKTDPRP: 0.876.
Then RRIRCRPPRLPRPRPRPYEIPRP, with -0.00133.
Take RRIRDRPPRLPRPRPRPDNKPRP: the “shrunken log2 fold change” value is -0.413.
Turning to RRIRERPPRLPRPRPRPPCGPRP, the “shrunken log2 fold change” value stood at 0.259.
Next, RRIRGRPPRLPRPRPRPYIKPRP: -0.164; RRIRDRPPRLPRPRPRPAMGPRP: 0.399.
With RRIRCRPPRLPRPRPRPHVRPRP, the “shrunken log2 fold change” value was -0.4.
Take RRIRDRPPRLPRPRPRPKQWPRP: the “shrunken log2 fold change” value was found to be 0.109.
Next, RRIRYRPPRLPRPRPRPKISPRP: -0.134; RRIRRRPPRLPRPRPRPRWNPRP: 0.326; RRIRTRPPRLPRPRPRPCQSPRP: 0.183.
Then RRIRCRPPRLPRPRPRPDNYPRP, with -0.921.
For the sequence RRIRARPPRLPRPRPRPKAQPRP, the “shrunken log2 fold change” value stood at 1.26.
Then RRIRIRPPRLPRPRPRPDVVPRP, with -0.0365; and RRIRKRPPRLPRPRPRPNWTPRP, with -0.129; and RRIRQRPPRLPRPRPRPICCPRP, with 0.259.
Regarding RRIRWRPPRLPRPRPRPKHMPRP, the “shrunken log2 fold change” value was -0.063.
Then RRIRFRPPRLPRPRPRPLLHPRP, with -0.247.
Next, RRIRDRPPRLPRPRPRPSFAPRP: 0.263; RRIRWRPPRLPRPRPRPYCWPRP: -0.127.
For RRIRFRPPRLPRPRPRPRAFPRP, the “shrunken log2 fold change” value turned out to be 0.0447.
In the case of RRIRCRPPRLPRPRPRPIRPPRP, the “shrunken log2 fold change” value is -0.0704.
Next, RRIRQRPPRLPRPRPRPQYGPRP: -0.0763.
As for RRIRLRPPRLPRPRPRPCTCPRP, the “shrunken log2 fold change” value was -0.238.
Then RRIRQRPPRLPRPRPRPAFRPRP, with 0.204; and RRIRSRPPRLPRPRPRPYAVPRP, with -0.137.
Next, RRIRSRPPRLPRPRPRPCLMPRP: -0.135; RRIRYRPPRLPRPRPRPKADPRP: 0.0864.
Then RRIRPRPPRLPRPRPRPCAKPRP, with -0.0518; and RRIRNRPPRLPRPRPRPEASPRP, with 0.0343.
For RRIRYRPPRLPRPRPRPKLAPRP, the “shrunken log2 fold change” value was -0.0901.
Next, RRIRDRPPRLPRPRPRPKWSPRP: -0.0182.
Then RRIRARPPRLPRPRPRPALSPRP, with 0.628; and RRIRYRPPRLPRPRPRPSHIPRP, with -1.45.
Then RRIRPRPPRLPRPRPRPDEGPRP, with -0.188; and RRIRGRPPRLPRPRPRPWVLPRP, with 0.222; and RRIRGRPPRLPRPRPRPYATPRP, with 1.81.
RRIRNRPPRLPRPRPRPWTHPRP: the “shrunken log2 fold change” value is -0.0174.
Next, RRIRARPPRLPRPRPRPQCWPRP: 0.173.
Next, RRIRYRPPRLPRPRPRPPPLPRP: 0.616; RRIRCRPPRLPRPRPRPEGNPRP: -0.0225.
Then RRIRRRPPRLPRPRPRPLYMPRP, with -0.15.
Regarding RRIRSRPPRLPRPRPRPCVVPRP, the “shrunken log2 fold change” value is -0.266.
Then RRIRMRPPRLPRPRPRPLTTPRP, with 1.06; and RRIRARPPRLPRPRPRPTFRPRP, with 0.323.
Then RRIRNRPPRLPRPRPRPPFFPRP, with 0.162; and RRIRERPPRLPRPRPRPQEGPRP, with 0.0271; and RRIRQRPPRLPRPRPRPCPKPRP, with 4.03.
Take RRIRGRPPRLPRPRPRPLAHPRP: the “shrunken log2 fold change” value amounted to 0.546.
RRIRGRPPRLPRPRPRPGTGPRP: the “shrunken log2 fold change” value turned out to be 0.84.
Then RRIRYRPPRLPRPRPRPWEEPRP, with -0.0122.
As to RRIRLRPPRLPRPRPRPTNDPRP, the “shrunken log2 fold change” value was -0.288.
Then RRIRYRPPRLPRPRPRPMPNPRP, with -0.0961.
Then RRIRSRPPRLPRPRPRPRSGPRP, with 0.237; and RRIRYRPPRLPRPRPRPDAWPRP, with 0.0522.
Then RRIRLRPPRLPRPRPRPVWEPRP, with 0.0556.
For the sequence RRIRQRPPRLPRPRPRPTIRPRP, the “shrunken log2 fold change” value is -0.219.
Turning to RRIRCRPPRLPRPRPRPEQDPRP, the “shrunken log2 fold change” value was -0.0796.
Then RRIRNRPPRLPRPRPRPGSNPRP, with -0.0081; and RRIRERPPRLPRPRPRPNAKPRP, with -0.134.
In the case of RRIRMRPPRLPRPRPRPKHFPRP, the “shrunken log2 fold change” value was 0.176.
Then RRIRCRPPRLPRPRPRPFIYPRP, with -0.808; and RRIRTRPPRLPRPRPRPQTFPRP, with -0.567.
On to RRIRSRPPRLPRPRPRPNYYPRP, for which the “shrunken log2 fold change” value was -0.822.
Then RRIRHRPPRLPRPRPRPIIKPRP, with -0.279; and RRIRCRPPRLPRPRPRPQVFPRP, with -0.13; and RRIRPRPPRLPRPRPRPVVIPRP, with -0.191.
For RRIRARPPRLPRPRPRPGWDPRP, the “shrunken log2 fold change” value stood at 0.811.
Then RRIRYRPPRLPRPRPRPCWIPRP, with -0.01.
Then RRIRKRPPRLPRPRPRPSNKPRP, with 0.0208; and RRIRKRPPRLPRPRPRPKNLPRP, with 0.177.
Next, RRIRRRPPRLPRPRPRPGRFPRP: 0.451.
For the sequence RRIRERPPRLPRPRPRPNNGPRP, the “shrunken log2 fold change” value is -0.0529.
Consider RRIRQRPPRLPRPRPRPIEHPRP, for which the “shrunken log2 fold change” value is 0.0215.
Next, RRIRQRPPRLPRPRPRPNTIPRP: 0.0518.
Next, RRIRVRPPRLPRPRPRPRYCPRP: -0.144; RRIRYRPPRLPRPRPRPAMGPRP: -0.031.
Next, RRIRMRPPRLPRPRPRPNNFPRP: -0.169; RRIRRRPPRLPRPRPRPHSNPRP: -0.281; RRIRDRPPRLPRPRPRPNWWPRP: 0.22.
In the case of RRIRKRPPRLPRPRPRPNGPPRP, the “shrunken log2 fold change” value was -0.00695.
Then RRIRERPPRLPRPRPRPDWRPRP, with -0.0634; and RRIRTRPPRLPRPRPRPQEAPRP, with 0.0871.

The record behind these values is the supplement of paper PMC9112550, “Optimization of the antimicrobial peptide Bac7 by deep mutational scanning” (BMC Biology, 2022).
